Experimental findings from the supplement of paper PMC7877785 are described below.

± gives the uncertainty stated by the source.

A short description of the series: self-splicing fitness, log relative to wild type (ln ratio); higher = more splicing; Tetrahymena group I intron in knt gene, E. coli kanamycin selection, DiMSum; sequences stand for … in CUCUCU…GGAGGGAAAAGUUAUCAGGCAUGCACCUGGUAGCUAGUCUUUAAACCAAUAGAUUGCAUCGGUUUAAAAGGCAAGACCGUCAAAUUGCGGGAAAGGGGUCAACAGCCGUUCAGUACCAAGUCUCAGGGGAAACUUUGAGAUGGCCUUGCAAAGGGUAUGGUAAUAAGCUGACGGACAUGGUCCUAACCACGCAGCCAAGUCCUAAGUCAACAGAUCUUCUGUUGAUAUGGAUGCAGUUCACAGACUAAAUGUCGGUCGGGGAAGAUGUAUUCUUCUCAUAAGAUAUAGUCGGACCUCUCCUUAAUGGGAGCUAGCGGAUGAAGUGAUGCAACACUGGAGCCGCUGGGAACUAAUUUGUAUGCGAAAGUAUAUUGAUUAGUUUUGGAGUACUCGUGGUCG
The essentials: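 Six replicate transformations of E. coli BL21(DE3) with a pET-22b(+) library were grown overnight at 37°C or 30°C. The library randomised all eight P1ex-region intron nucleotides, the intron lying in the knt kanamycin-resistance gene, and plates were LB agar with or without 25 μg/mL kanamycin plus 100 μg/mL carbenicillin, 50 μM IPTG and 0.2% rhamnose. Pooled colonies were amplicon-sequenced on an Illumina HiSeq 2500, and fitness is the DiMSum error-weighted combination of wild-type-normalised replicate fold changes, kanamycin versus none.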

GAGUAGCAAUAUUACGGGAC: the “self-splicing fitness (ln)” value was -3.17 ± 0.35 (30 °C) and -1.41 ± 0.22 (37 °C).

Take CCCCAGCAAUAUUACGGAGC: the “self-splicing fitness (ln)” value is -3.08 ± 0.15 (30 °C) and -2.83 ± 0.23 (37 °C).

On to ACAUAGCAAUAUUACGUUCG, for which the “self-splicing fitness (ln)” value reads like this: (30 °C) -1.04 ± 0.075; (37 °C) -0.65 ± 0.1.

Regarding UGCGAGCAAUAUUACGACAC, the “self-splicing fitness (ln)” value reads like this: (30 °C) -2.71 ± 0.3; (37 °C) 0.803 ± 0.27.

With ACAGAGCAAUAUUACGAUAG, the “self-splicing fitness (ln)” value was -2.78 ± 0.26 (30 °C) and -3.02 ± 0.35 (37 °C).

As to UUGCAGCAAUAUUACGGCUC, the “self-splicing fitness (ln)” value is -0.757 ± 0.094 (30 °C) and -0.29 ± 0.14 (37 °C).

With CGCAAGCAAUAUUACGUAAG, the “self-splicing fitness (ln)” value runs as follows: (30 °C) -0.308 ± 0.067; (37 °C) 0.113 ± 0.093.

For the sequence CCACAGCAAUAUUACGGAGC, the “self-splicing fitness (ln)” value runs as follows: (30 °C) -3.58 ± 0.14; (37 °C) -2.99 ± 0.19.

Take UCUCAGCAAUAUUACGCUUA: the “self-splicing fitness (ln)” value reads like this: (30 °C) -2.42 ± 0.31; (37 °C) -2.93 ± 0.24.

Take ACGUAGCAAUAUUACGUGGC: the “self-splicing fitness (ln)” value was -2.94 ± 0.17 (30 °C) and -2.98 ± 0.26 (37 °C).

For the sequence AAUCAGCAAUAUUACGUUCA, the “self-splicing fitness (ln)” value by setting is: (30 °C) -1.2 ± 0.091; (37 °C) -0.527 ± 0.11.

On to CCUGAGCAAUAUUACGGUGA, for which the “self-splicing fitness (ln)” value is, setting by setting: (30 °C) -4 ± 0.3; (37 °C) -2.64 ± 0.26.

Regarding GCACAGCAAUAUUACGGGGC, the “self-splicing fitness (ln)” value was -3.43 ± 0.16 (30 °C) and -2.62 ± 0.18 (37 °C).

With CUAAAGCAAUAUUACGGCGU, the “self-splicing fitness (ln)” value is -3.68 ± 0.23 (30 °C) and -3.05 ± 0.35 (37 °C).

In the case of AGCCAGCAAUAUUACGUUGA, the “self-splicing fitness (ln)” value reads like this: (30 °C) -3.31 ± 0.13; (37 °C) -2.04 ± 0.16.

Consider GAGAAGCAAUAUUACGGCUC, for which the “self-splicing fitness (ln)” value (37 °C) is -2.07 ± 0.21.

Take UAACAGCAAUAUUACGCUAU: the “self-splicing fitness (ln)” value reads like this: (30 °C) -2.86 ± 0.12; (37 °C) -1.82 ± 0.11.

As for UCCAAGCAAUAUUACGCAUU, the “self-splicing fitness (ln)” value (30 °C) is -4.05 ± 0.21 and the “self-splicing fitness (ln)” value (37 °C) is -2.35 ± 0.23.

In the case of AGCUAGCAAUAUUACGGCUA, the “self-splicing fitness (ln)” value is -0.83 ± 0.14 (30 °C) and -0.754 ± 0.15 (37 °C).

In the case of GUGCAGCAAUAUUACGGUGC, the “self-splicing fitness (ln)” value (30 °C) is -1.91 ± 0.19 and the “self-splicing fitness (ln)” value (37 °C) was -2.31 ± 0.28.

In the case of AAACAGCAAUAUUACGUCAA, the “self-splicing fitness (ln)” value was -2.45 ± 0.11 (30 °C) and -1.44 ± 0.087 (37 °C).

In the case of ACACAGCAAUAUUACGAUUU, the “self-splicing fitness (ln)” value (30 °C) was -0.589 ± 0.036 and the “self-splicing fitness (ln)” value (37 °C) was 0.0571 ± 0.056.

UACCAGCAAUAUUACGGGCC: the “self-splicing fitness (ln)” value by setting is: (30 °C) -2.22 ± 0.1; (37 °C) -1.2 ± 0.11.

In the case of UGAUAGCAAUAUUACGUAUC, the “self-splicing fitness (ln)” value (30 °C) is -2.67 ± 0.48.

For GAUAAGCAAUAUUACGUUCU, the “self-splicing fitness (ln)” value (30 °C) was -1.8 ± 0.14 and the “self-splicing fitness (ln)” value (37 °C) is -2.58 ± 0.29.

With GUUAAGCAAUAUUACGCCUU, the “self-splicing fitness (ln)” value runs as follows: (30 °C) -0.286 ± 0.071; (37 °C) 0.261 ± 0.096.

On to UACGAGCAAUAUUACGGAGU, for which the “self-splicing fitness (ln)” value (37 °C) was -2.68 ± 0.23.

UAUUAGCAAUAUUACGUCUC: the “self-splicing fitness (ln)” value by setting is: (30 °C) -2.7 ± 0.35; (37 °C) -1.5 ± 0.22.

GAUCAGCAAUAUUACGCACA: the “self-splicing fitness (ln)” value runs as follows: (30 °C) -0.0131 ± 0.12; (37 °C) 0.404 ± 0.13.

Turning to ACAAAGCAAUAUUACGCCAU, the “self-splicing fitness (ln)” value runs as follows: (30 °C) -3.96 ± 0.2; (37 °C) -2.24 ± 0.14.

As for GGAUAGCAAUAUUACGGCGU, the “self-splicing fitness (ln)” value is, setting by setting: (30 °C) 0.322 ± 0.093; (37 °C) 0.626 ± 0.1.

Take AUCAAGCAAUAUUACGUCAC: the “self-splicing fitness (ln)” value is -2.32 ± 0.16 (30 °C) and -2.28 ± 0.3 (37 °C).

As to GGAGAGCAAUAUUACGUACA, the “self-splicing fitness (ln)” value (37 °C) was -1.61 ± 0.47.

As for ACUGAGCAAUAUUACGGGAG, the “self-splicing fitness (ln)” value is -3.29 ± 0.2 (30 °C) and -2.74 ± 0.2 (37 °C).

In the case of UAGGAGCAAUAUUACGUGCU, the “self-splicing fitness (ln)” value is, setting by setting: (30 °C) -3.16 ± 0.34; (37 °C) -1.05 ± 0.23.

As to GCCAAGCAAUAUUACGGCAA, the “self-splicing fitness (ln)” value is -2.23 ± 0.17 (30 °C) and -1.06 ± 0.15 (37 °C).

As for GACCAGCAAUAUUACGAUCG, the “self-splicing fitness (ln)” value is -0.875 ± 0.091 (30 °C) and -0.444 ± 0.1 (37 °C).

GGUGAGCAAUAUUACGGAUU: the “self-splicing fitness (ln)” value reads like this: (30 °C) -0.567 ± 0.14; (37 °C) -1.26 ± 0.19.

As to CAUAAGCAAUAUUACGAUUA, the “self-splicing fitness (ln)” value (30 °C) is -1.64 ± 0.14 and the “self-splicing fitness (ln)” value (37 °C) is -1.4 ± 0.14.
